Test [1] deals with T1, human Fas antigen on WC8A / WC8 cells (human, UniProt P25445 26-335).
T1 construct: whole, on cells
T1 sequence (looked up): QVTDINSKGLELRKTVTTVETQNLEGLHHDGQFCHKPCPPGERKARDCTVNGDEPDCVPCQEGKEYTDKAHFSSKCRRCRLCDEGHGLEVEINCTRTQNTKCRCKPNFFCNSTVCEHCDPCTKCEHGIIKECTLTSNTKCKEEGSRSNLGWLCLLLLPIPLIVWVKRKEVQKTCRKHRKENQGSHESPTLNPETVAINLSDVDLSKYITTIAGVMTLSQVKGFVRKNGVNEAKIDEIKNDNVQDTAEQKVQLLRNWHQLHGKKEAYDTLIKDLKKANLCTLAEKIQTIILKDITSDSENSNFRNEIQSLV
Briefly: concluded from cytotoxicity of the culture supernatant on cells expressing human Fas antigen.

For test [2], the target named is T2, rat Fas ligand (encoded by clone pTN24-15) (rat, UniProt P36940 1-278).
T2 construct: Full-length type II membrane protein of 278 residues; It stood on d10S cells and on COS-7 cells transfected with pTN24-15; It was also used as NP-40 lysate of these cells (immunoprecipitation) and as protein purified from the d10S-12 membrane fraction (about 40 kD); also called Fas ligand on the d10S cells; COS/pTN24-15
T2 sequence: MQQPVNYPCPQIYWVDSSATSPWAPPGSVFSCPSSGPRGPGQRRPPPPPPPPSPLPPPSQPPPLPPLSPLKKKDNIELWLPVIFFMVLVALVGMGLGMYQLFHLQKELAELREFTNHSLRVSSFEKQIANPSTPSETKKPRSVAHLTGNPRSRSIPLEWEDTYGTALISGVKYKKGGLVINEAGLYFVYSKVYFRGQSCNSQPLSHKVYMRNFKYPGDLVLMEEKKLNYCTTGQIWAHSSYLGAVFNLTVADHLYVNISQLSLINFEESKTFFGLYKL
Briefly: flow cytometry on d10S cells, phycoerythrin-labeled streptoavidin. The procedure:
PC60-d10S cells (to be referred to as "d10S" hereinafter; Rouvier E. et al., J. Exp. Med., vol. 177, pp. 195–200, 1993) were washed with a staining solution (phosphate-buffered saline (to be referred to as "PBS" hereinafter) containing 2% FCS and 0.02% NaN₃). About 1 ×10^6 of the cells were suspended in 50 μl of the staining solution supplemented with 5 μg/ml of rat anti-mouse FcγRII blocking antibody (Pharmingen). This suspension was dispensed into wells of a 96 well plate and incubated for 10 minutes on an ice bath. A 20 μg/ml solution of the biotinylated mFas-Fc was dispensed into wells of the resulting plate in 50 μl portions, and the incubation was continued for additional 30 minutes on an ice bath. […]
After washing the cells with the staining solution, cytometric analysis was carried out using FACScan (Becton Dickinson). As the result, a slight shift in the fluorescence intensity was observed which confirmed that said cells were stained with the biotinylated mFas-Fc (see FIG. 1(A). Control was expressed as an open area, and staining before 4 hours of treatment with PMA and ionomycin as a stippled area and staining after 4 hours of treatment with PMA and ionomycin as a closed area.
For orientation: Flow cytometry measures light scatter and fluorescence of single cells or particles in a stream.

Test [3] addresses T3, mouse Fas antigen on W4 cells (mouse, UniProt P25446 22-327).
T3 construct: whole, on cells; also called Fas antigen-expressing W4 cells
T3 sequence (looked up): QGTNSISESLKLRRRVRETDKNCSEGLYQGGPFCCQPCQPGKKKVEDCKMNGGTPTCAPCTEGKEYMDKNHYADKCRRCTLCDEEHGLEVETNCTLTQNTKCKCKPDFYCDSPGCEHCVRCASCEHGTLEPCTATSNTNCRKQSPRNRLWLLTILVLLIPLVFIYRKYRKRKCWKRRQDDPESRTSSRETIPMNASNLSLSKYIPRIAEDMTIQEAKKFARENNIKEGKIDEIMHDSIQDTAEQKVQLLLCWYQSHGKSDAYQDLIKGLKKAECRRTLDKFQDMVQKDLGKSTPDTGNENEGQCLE
Briefly: concluded from cytotoxicity on W4 cells and its inhibition by mFas-Fc. The procedure: Cytotoxic activity of recombinant cells was measured in the same manner as described in Inventive Example 8, using the transformed COS cells (COS/pEF-MFLW4F) obtained in the above step (2) as the effector cells and 10^6 cells-of WR19L or W4 as the target cells. The W4 is a transformant which acquired mouse Fas antigen-expressing ability through the transformation of mouse WR19L cells. That is, 10^6 cells of WR19L or W4 were labeled with ^51Cr by culturing the cells at 37° C. for 2 hours in RPMI 1640 medium containing 20 μCi of (^51Cr) sodium chromate (Amersham).
The thus ^51Cr-labeled cells (1×10^4) were mixed with COS/pEF-MFLW4F cells at various mixing ratios and cultured at 37° C. for 4 hours, subsequently measuring cytotoxic activity using released ^51Cr as an index. […] In addition, the cytotoxicity of COS/pEF-MFLW4F cells was inhibited by the addition of 20 μg/ml of the chimera protein containing the extracellular domain of mouse Fas antigen (mFas-Fc) prepared in Inventive Example 1, but was not inhibited by the addition of the soluble type human TNF receptor (hTNFRβ-Fc).

For test [4], the target named is T1, human Fas antigen on WC8A / WC8 cells. In words: concluded from cytotoxicity on WC8A cells and its inhibition by hFas-Fc and mFas-Fc. Here is the method:
Cytotoxic activity of recombinant cells was measured in the same manner as described in Inventive Example 8, using the COS-7 cells transformed in the above step (2) as the effector cells and 10^6 cells of WR19L or WC8A as the target cells. The WC8A is a transformant which acquired human Fas antigen-expressing ability through the transformation of mouse WR19L cells (Itoh N. et al., *J. Immunol.*, vol. 151, pp. 621–627, 1993).
The thus ^51Cr-labeled cells (1 ×10^4) were mixed with COS/pEX-hFL1 cells at various mixing ratios and cultured at 37° C. for 4 hours, subsequently measuring cytotoxic activity using released ^51Cr as an index.

From patent publication US6897295 (MOCHIDA PHARMACEUTICAL, dated 2005) come the findings set out here.

B1: extracellular domain of the human Fas ligand secreted by transformant COS-1/pM1070 (ligand)
chain: QLFHLQKELAELRESTSQMHTASSLEKQIGHPSPPPEKKELRKVAHLTGKSNSRSMPLEWEDTYGIVLLSGVKYKKGGLVINETGLYFVYSKVYFRGQSCNNLPLSHKVYMRNSKYPQDLVMMEGKMMSYCTTGQMWARSSYLGAVFNLTSADHLYVNVSELSLVNFEESQTFFGLYKL
notes: Expressed behind the signal peptide of the human Fas antigen, which is not counted here; Tested as culture supernatant; also called culture supernatant of COS-1/pM1070
For the molecule B1, the binding result in test [1] is “binds”.

B2: chimera protein of the extracellular domain of mouse Fas (mFas) antigen and the Fc region of human IgG1 (hIgG1) (Fc fusion, UniProt P25446 22-169, looked up)
chain: QGTNSISESLKLRRRVRETDKNCSEGLYQGGPFCCQPCQPGKKKVEDCKMNGGTPTCAPCTEGKEYMDKNHYADKCRRCTLCDEEHGLEVETNCTLTQNTKCKCKPDFYCDSPGCEHCVRCASCEHGTLEPCTATSNTNCRKQSPRNR
modifications: biotinylated with NHS-LC-biotin in the flow cytometry; unlabelled in the other assays
notes: extracellular domain; Made from plasmid pFas-FcII in COS-7 or BTS-1 cells; also called mFas-Fc; biotinylated mFas-Fc; not shown: human IgG1 heavy chain constant region: hinge, CH2 and CH3 domains
As to B2, in test [2], the binding result is listed as “binds”.

B3: chimera protein of TNF receptor beta and Fc region of human IgG1 (Fc fusion, UniProt P19438 30-211, looked up)
chain: LVPHLGDREKRDSVCPQGKYIHPQNNSICCTKCHKGTYLYNDCPGPGQDTDCRECESGSFTASENHLRHCLSCSKCRKEMGQVEISSCTVDRDTVCGCRKNQYRHYWSENLFQCFNCSLCLNGTVHLSCQEKQNTVCTCHAGFFLRENECVSCSNCKKSLECTKLCLPQIENVKGTEDSGTT
modifications: biotinylated with NHS-LC-biotin in the flow cytometry; unlabelled in the cytotoxicity assays
notes: extracellular domain; Control fusion protein; also called hTNFRβ-Fc; soluble type human TNF receptor; not shown: human IgG1 Fc region (hinge, CH2, CH3, as in pFas-FcII)
Turning to B3, the binding result in test [2] is listed as “no binding”.

B4: mouse Fas ligand (encoded by pEF-MFLW4) (ligand)
chain: MQQPMNYPCPQIFWVDSSATSSWAPPGSVFPCPSCGPRGPDQRRPPPPPPPVSPLPPPSQPLPLPPLTPLKKKDHNTNLWLPVVFFMVLVALVGMGLGMYQLFHLQKELAELREFTNQSLKVSSFEKQIANPSTPSEKKEPRSVAHLTGNPHSRSIPLEWEDTYGTALISGVKYKKGGLVINETGLYFVYSKVYFRGQSCNNQPLNHKVYMRNSKYPEDLVLMEEKRLNYCTTGQIWAHSSYLGAVFNLTSADHLYVNISQLSLINFEESKTFFGLYKL
notes: Full-length protein of 279 residues on transfected COS cells; In the western blots it stood as reduced SDS extract of these cells; also called COS/pEF-MFLW4F
For the molecule B4, in test [3], the binding result is listed as “binds”.

B5: human Fas ligand (encoded by pEX-hFL1) (ligand)
chain: MQQPFNYPYPQIYWVDSSASSPWAPPGTVLPCPTSVPRRPGQRRPPPPPPPPPLPPPPPPPPLPPLPLPPLKKRGNHSTGLCLLVMFFMVLVALVGLGLGMFQLFHLQKELAELRESTSQMHTASSLEKQIGHPSPPPEKKELRKVAHLTGKSNSRSMPLEWEDTYGIVLLSGVKYKKGGLVINETGLYFVYSKVYFRGQSCNNLPLSHKVYMRNSKYPQDLVMMEGKMMSYCTTGQMWARSSYLGAVFNLTSADHLYVNVSELSLVNFEESQTFFGLYKL
notes: Full-length protein on COS-7 cells (COS/pEX-hFL1) or FDC-P1 cells (FLh1); In the western blots it stood as reduced SDS extract of the transfected COS cells; also called COS/pEX-hFL1; human Fas ligand-expressing COS cells
For B5, the binding result in test [4] is “binds”.
